The text below walks through data of article PMC4838857, “Tum/RacGAP functions as a switch activating the Pav/kinesin-6 motor” (Nature Communications, 2016).

Series [1] deals with Pav/kinesin-6 (Pavarotti, Pav-KLP), full length with C-terminal 6xHis (Drosophila melanogaster). As to the kind of experiment: SEC + other: sucrose gradient sedimentation; hydrodynamic analysis (Siegel and Monty) of centralspindlin purified from co-expression: Superose 6 and 5-20% sucrose gradient, 4 °C.
The target is the same in series [2]. Kind of series: SEC + other: sucrose gradient sedimentation; hydrodynamic analysis (Siegel and Monty) of the in vitro add-back: equal molar Pav/kinesin-6 and Tum/RacGAP, purified apart, mixed and incubated.
For series [3] the target is unchanged. As to the kind of experiment: SEC + other: sucrose gradient sedimentation; hydrodynamic analysis (Siegel and Monty) of each protein alone: Stokes radius by Superose 6, S value on 5-20% sucrose gradient, 9 h at 55,000 r.p.m., 4 °C.
The target is the same in series [4].
Series [5] concerns the target Tum/RacGAP (Tumbleweed, RacGAP50C), full length with C-terminal 6xHis (Drosophila melanogaster). Kind of series: SEC + other: sucrose gradient sedimentation; hydrodynamic analysis (Siegel and Monty) of the in vitro add-back: equal molar Pav/kinesin-6 and Tum/RacGAP, purified apart, mixed and incubated.
Series [6] shares this target. As to the kind of experiment: SEC + other: sucrose gradient sedimentation; hydrodynamic analysis (Siegel and Monty) of each protein alone: Stokes radius by Superose 6, S value on 5-20% sucrose gradient, 9 h at 55,000 r.p.m., 4 °C.
Series [7] addresses Tum/RacGAP (Tumbleweed, RacGAP50C), full length, untagged, co-expressed with Pav/kinesin-6 (Drosophila melanogaster). Kind of series: SEC + other: sucrose gradient sedimentation; hydrodynamic analysis (Siegel and Monty) of centralspindlin purified from co-expression: Superose 6 and 5-20% sucrose gradient, 4 °C.
Substrate in series [8]: Nc1ncnc2c1ncn2[C@@H]1O[C@H](COP(=O)(O)OP(=O)(O)OP(=O)(O)O)[C@@H](O)[C@H]1O
As to the kind of experiment: microtubule gliding velocity vs [MgATP], Lineweaver-Burk. As to conditions: motility-derived Km, saturating taxol-stabilised microtubules, Mg2+, pH 8.0, 150 mM KCl. Type of series: biochemical, Drosophila melanogaster. The source says:
microtubule gliding velocity vs [MgATP], Lineweaver-Burk on centralspindlin (co-expressed Pav/Tum)

Consider “Pav/kinesin-6 (Pavarotti, Pav-KLP), full length with C-terminal 6xHis (natural protein)”, for which the stoichiometry N in series [1], in series [2] and in series [3] was 2 subunits in each case.
The molecule “Tum1-65 fragment (1-65aa of Tum/RacGAP) with C-terminal 6xHis (domain or fragment)” yielded an MT gliding velocity of Pav+Tum1-65 (in vitro add-back); Pav/kinesin-6 alone 0 in series [4] of 0.075 μm s^-1.
In series [4], “Tum/RacGAP (Tumbleweed, RacGAP50C), full length with C-terminal 6xHis (natural protein)” returned an MT gliding velocity of Pav+Tum (in vitro add-back, equal molar); Pav/kinesin-6 alone 0 of 0.062 μm s^-1. Further, the stoichiometry N in series [5] and in series [6] was 2 subunits throughout.
“Tum/RacGAP (Tumbleweed, RacGAP50C), full length, untagged, co-expressed with Pav/kinesin-6 (natural protein)” came in with an MT gliding velocity of centralspindlin (co-expressed Pav/Tum); Pav/kinesin-6 alone 0 in series [4] of 0.103 μm s^-1. Also, in series [7], the stoichiometry N worked out at 2 subunits.

B1: centralspindlin (co-expressed Pav/Tum) (Drosophila melanogaster) (protein)
chain: MKAVPRTPMRVVPKTPRVHQTVEKQRRDTSDKARDPVNVFCRVRPLQSDADLTSLRVKNSTTIALNPQDQLLQHHKPHNGAQREVQYIFKHVFQPDATQQDVYAAVAQPLVENLLKGRNSLLFTYGVTGSGKTYTMTGNLRHRGIMPRCLDVLFRTISDYQAKKFVFKPDKLNGFEILSEEDALLERQHEMNQRFAGSGRFAFRHKDSDPEIASQASVEPIPLLGLDEDNMYSVFVTYIEIYNNSVYDLLEDSGIQKTLQSKIIREDANRHMFVHGVTEVEVKTVEDALEVFQMGQKRKRMGHTVLNAESSRSHSVFNIRLVQAPTDSQGENVVQDRQNITVSQLSLVDLAGSERSSRTKNTGVRLREAGNINNSLMTLRTCLEYLRENQLAASNGLAPKKVPYRDSKITHMFKNYFDGEGQVSMIVCINPRIEDYDENMQVMKFAEMTQEVQIARATPMKQDLGLTPGRRKANKLFKIAVNNLNELGIPEAKDLEVDVGLVYSLGPDFPAYEMDSPEAQIKIRELMHYLEQRIEKRKKLRANLDIKCDSFRQMLMNLDRDNLQLRTELASLKAVYKQERDRSAALEKKVRIHESSIDVLNNTLSKQERQIEELTFKLNEKENMLTQKEHEKEKQKKKFSSKLAVESDKNKREFELKLREQRVKLQERMRIKDEKLRLVSNILQSEDLPSLPRSQSSENILNEKDRGAYTARTEESSVPATRTDIYATPRHGAAAANNRHRRSRSAGDKWLEHRAANPVPLGTIMQPYLKNRKSVTKLTDLKELTAHGTTKYCLVSQDADTDGDVETKLYKGNVIPTCGGGAQVVFNDVECLKQKSPVHSPTRKRPSNGNISALGGGAVPSTVTSAQDVASRCNLGIEGHSSKKSKI
notes: full-length Pav with C-terminal 6xHis co-expressed with untagged full-length Tum in Sf9 (baculovirus), Ni-NTA and Superose 6; heterotetramer 372 kDa (2 Pav 107 kDa + 2 Tum 65 kDa); cDNA errors in Tum corrected
For the molecule B1, in series [8], the Km stood at 0.079 ± 0.013 mM.
